Data on 2 substances can be found in article PMC8240387.

The term Kd denotes the constant that tells how readily two partners part at equilibrium. Read a low Kd as a tighter complex.

Experiment [1] addresses Mammalian cell-expressed N6 (mN6), broadly neutralising anti-HIV monoclonal antibody N6 expressed in HEK-293T cells (human). As to the kind of experiment: SPR. In general terms: SPR reads the build-up and loss of mass on a sensor chip optically.
Experiment [2] addresses Plant-expressed N6 (pN6), broadly neutralising anti-HIV monoclonal antibody N6 expressed in glycoengineered ΔXF N. benthamiana (human). As to the kind of experiment: SPR.

Sequence of soluble FcγRIIIa (P08637 17-208): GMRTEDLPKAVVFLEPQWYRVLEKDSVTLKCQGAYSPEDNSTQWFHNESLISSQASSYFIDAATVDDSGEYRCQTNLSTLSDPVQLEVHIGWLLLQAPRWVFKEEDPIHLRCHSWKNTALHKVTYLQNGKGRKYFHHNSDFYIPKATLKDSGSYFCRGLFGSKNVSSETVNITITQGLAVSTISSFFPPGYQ
Sequence of Plant-expressed N6 (pN6), broadly neutralising anti-HIV monoclonal antibody N6 expressed in glycoengineered ΔXF N. benthamiana (human) (heavy, as listed by the source, chain 1 of 2): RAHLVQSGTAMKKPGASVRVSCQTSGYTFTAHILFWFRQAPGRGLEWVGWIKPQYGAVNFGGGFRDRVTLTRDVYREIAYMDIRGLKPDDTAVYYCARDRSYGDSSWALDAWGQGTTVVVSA
Sequence of Plant-expressed N6 (pN6), broadly neutralising anti-HIV monoclonal antibody N6 expressed in glycoengineered ΔXF N. benthamiana (human) (light, as listed by the source, chain 2 of 2): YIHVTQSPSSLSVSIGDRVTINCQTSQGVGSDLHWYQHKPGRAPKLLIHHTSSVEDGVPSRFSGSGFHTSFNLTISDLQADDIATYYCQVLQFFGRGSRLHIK
Sequence of Mammalian cell-expressed N6 (mN6), broadly neutralising anti-HIV monoclonal antibody N6 expressed in HEK-293T cells (human) (heavy, as listed by the source, chain 1 of 2): as the sequence (heavy, as listed by the source, chain 1 of 2) above
Sequence of Mammalian cell-expressed N6 (mN6), broadly neutralising anti-HIV monoclonal antibody N6 expressed in HEK-293T cells (human) (light, as listed by the source, chain 2 of 2): as the sequence (light, as listed by the source, chain 2 of 2) above

For “recombinant, soluble HIV-1 UG37 gp140 (domain or fragment)”, the Kd amounted to 17.1 nM in experiment [1] and 11.9 nM in experiment [2].

For “soluble FcγRIIIa (from UniProt P08637 17-208) (receptor)”, the Kd in experiment [1] came to 858 nM; in experiment [2], 64.4 nM.
